Laboratory results: US20150344540A1, “NOVEL GLP-1 RECEPTOR AGONISTS WITH CHOLESTEROL EFFLUX ACTIVITY” (NOVO NORDISK A/S, priority 2012, published 2015)
Where no end group is shown, it is not given here. [ ]: non-standard residue; d: D form. Aib = CC(C)(N)C(=O)O

B1: [Aib8,Val25,Asn34,Lys35,Aib36,Ala37]-GLP-1-(7-37)-peptidyl-Glu-Phe-Leu amide (peptide)
peptide: H[Aib]EGTFTSDVSSYLEGQAVKEFIAWLVNK[Aib]AEFL-NH2
modifications: N-terminus assumed
SMILES: CC[C@H](C)[C@H](NC(=O)[C@H](Cc1ccccc1)NC(=O)[C@H](CCC(=O)O)NC(=O)[C@H](CCCCN)NC(=O)[C@@H](NC(=O)[C@H](C)NC(=O)[C@H](CCC(N)=O)NC(=O)CNC(=O)[C@H](CCC(=O)O)NC(=O)[C@H](CC(C)C)NC(=O)[C@H](Cc1ccc(O)cc1)NC(=O)[C@H](CO)NC(=O)[C@H](CO)NC(=O)[C@@H](NC(=O)[C@H](CC(=O)O)NC(=O)[C@H](CO)NC(=O)[C@@H](NC(=O)[C@H](Cc1ccccc1)NC(=O)[C@@H](NC(=O)CNC(=O)[C@H](CCC(=O)O)NC(=O)C(C)(C)NC(=O)[C@@H](N)Cc1c[nH]cn1)[C@@H](C)O)[C@@H](C)O)C(C)C)C(C)C)C(=O)N[C@@H](C)C(=O)N[C@@H](Cc1c[nH]c2ccccc12)C(=O)N[C@@H](CC(C)C)C(=O)N[C@H](C(=O)N[C@@H](CC(N)=O)C(=O)N[C@@H](CCCCN)C(=O)NC(C)(C)C(=O)N[C@@H](C)C(=O)N[C@@H](CCC(=O)O)C(=O)N[C@@H](Cc1ccccc1)C(=O)N[C@@H](CC(C)C)C(N)=O)C(C)C
B2: [Aib8,Glu23,Val25,Glu34,Lys35,Val36,Lys37]-GLP-1-(7-37)-peptidyl-Glu-His-Leu amide (peptide)
peptide: H[Aib]EGTFTSDVSSYLEGEAVKEFIAWLVEKVKEHL-NH2
modifications: N-terminus assumed
SMILES: CC[C@H](C)[C@H](NC(=O)[C@H](Cc1ccccc1)NC(=O)[C@H](CCC(=O)O)NC(=O)[C@H](CCCCN)NC(=O)[C@@H](NC(=O)[C@H](C)NC(=O)[C@H](CCC(=O)O)NC(=O)CNC(=O)[C@H](CCC(=O)O)NC(=O)[C@H](CC(C)C)NC(=O)[C@H](Cc1ccc(O)cc1)NC(=O)[C@H](CO)NC(=O)[C@H](CO)NC(=O)[C@@H](NC(=O)[C@H](CC(=O)O)NC(=O)[C@H](CO)NC(=O)[C@@H](NC(=O)[C@H](Cc1ccccc1)NC(=O)[C@@H](NC(=O)CNC(=O)[C@H](CCC(=O)O)NC(=O)C(C)(C)NC(=O)[C@@H](N)Cc1c[nH]cn1)[C@@H](C)O)[C@@H](C)O)C(C)C)C(C)C)C(=O)N[C@@H](C)C(=O)N[C@@H](Cc1c[nH]c2ccccc12)C(=O)N[C@@H](CC(C)C)C(=O)N[C@H](C(=O)N[C@@H](CCC(=O)O)C(=O)N[C@@H](CCCCN)C(=O)N[C@H](C(=O)N[C@@H](CCCCN)C(=O)N[C@@H](CCC(=O)O)C(=O)N[C@@H](Cc1c[nH]cn1)C(=O)N[C@@H](CC(C)C)C(N)=O)C(C)C)C(C)C
B3: [Aib8,Glu23,Val25,Val29,Gln30,Glu34,Lys35,Aib36,Lys37]-GLP-1-(7-37)-peptidyl-Glu-Phe-Leu amide (peptide)
peptide: H[Aib]EGTFTSDVSSYLEGEAVKEFVQWLVEK[Aib]KEFL-NH2
modifications: N-terminus assumed
SMILES: CC(C)C[C@H](NC(=O)[C@H](Cc1ccccc1)NC(=O)[C@H](CCC(=O)O)NC(=O)[C@H](CCCCN)NC(=O)C(C)(C)NC(=O)[C@H](CCCCN)NC(=O)[C@H](CCC(=O)O)NC(=O)[C@@H](NC(=O)[C@H](CC(C)C)NC(=O)[C@H](Cc1c[nH]c2ccccc12)NC(=O)[C@H](CCC(N)=O)NC(=O)[C@@H](NC(=O)[C@H](Cc1ccccc1)NC(=O)[C@H](CCC(=O)O)NC(=O)[C@H](CCCCN)NC(=O)[C@@H](NC(=O)[C@H](C)NC(=O)[C@H](CCC(=O)O)NC(=O)CNC(=O)[C@H](CCC(=O)O)NC(=O)[C@H](CC(C)C)NC(=O)[C@H](Cc1ccc(O)cc1)NC(=O)[C@H](CO)NC(=O)[C@H](CO)NC(=O)[C@@H](NC(=O)[C@H](CC(=O)O)NC(=O)[C@H](CO)NC(=O)[C@@H](NC(=O)[C@H](Cc1ccccc1)NC(=O)[C@@H](NC(=O)CNC(=O)[C@H](CCC(=O)O)NC(=O)C(C)(C)NC(=O)[C@@H](N)Cc1c[nH]cn1)[C@@H](C)O)[C@@H](C)O)C(C)C)C(C)C)C(C)C)C(C)C)C(N)=O
B4: [Aib8,Val25,Gln27,Asn34,Lys35,Aib36,Ala37]-GLP-1-(7-37)-peptidyl-Glu-Phe-Leu amide (peptide)
peptide: H[Aib]EGTFTSDVSSYLEGQAVKQFIAWLVNK[Aib]AEFL-NH2
modifications: N-terminus assumed
SMILES: CC[C@H](C)[C@H](NC(=O)[C@H](Cc1ccccc1)NC(=O)[C@H](CCC(N)=O)NC(=O)[C@H](CCCCN)NC(=O)[C@@H](NC(=O)[C@H](C)NC(=O)[C@H](CCC(N)=O)NC(=O)CNC(=O)[C@H](CCC(=O)O)NC(=O)[C@H](CC(C)C)NC(=O)[C@H](Cc1ccc(O)cc1)NC(=O)[C@H](CO)NC(=O)[C@H](CO)NC(=O)[C@@H](NC(=O)[C@H](CC(=O)O)NC(=O)[C@H](CO)NC(=O)[C@@H](NC(=O)[C@H](Cc1ccccc1)NC(=O)[C@@H](NC(=O)CNC(=O)[C@H](CCC(=O)O)NC(=O)C(C)(C)NC(=O)[C@@H](N)Cc1c[nH]cn1)[C@@H](C)O)[C@@H](C)O)C(C)C)C(C)C)C(=O)N[C@@H](C)C(=O)N[C@@H](Cc1c[nH]c2ccccc12)C(=O)N[C@@H](CC(C)C)C(=O)N[C@H](C(=O)N[C@@H](CC(N)=O)C(=O)N[C@@H](CCCCN)C(=O)NC(C)(C)C(=O)N[C@@H](C)C(=O)N[C@@H](CCC(=O)O)C(=O)N[C@@H](Cc1ccccc1)C(=O)N[C@@H](CC(C)C)C(N)=O)C(C)C
B5: [Aib8,Val25,Gln27,Glu34,Lys35,Aib36,Ala37]-GLP-1-(7-37)-peptidyl-Glu-Phe-Leu amide (peptide)
peptide: H[Aib]EGTFTSDVSSYLEGQAVKQFIAWLVEK[Aib]AEFL-NH2
modifications: N-terminus assumed
SMILES: CC[C@H](C)[C@H](NC(=O)[C@H](Cc1ccccc1)NC(=O)[C@H](CCC(N)=O)NC(=O)[C@H](CCCCN)NC(=O)[C@@H](NC(=O)[C@H](C)NC(=O)[C@H](CCC(N)=O)NC(=O)CNC(=O)[C@H](CCC(=O)O)NC(=O)[C@H](CC(C)C)NC(=O)[C@H](Cc1ccc(O)cc1)NC(=O)[C@H](CO)NC(=O)[C@H](CO)NC(=O)[C@@H](NC(=O)[C@H](CC(=O)O)NC(=O)[C@H](CO)NC(=O)[C@@H](NC(=O)[C@H](Cc1ccccc1)NC(=O)[C@@H](NC(=O)CNC(=O)[C@H](CCC(=O)O)NC(=O)C(C)(C)NC(=O)[C@@H](N)Cc1c[nH]cn1)[C@@H](C)O)[C@@H](C)O)C(C)C)C(C)C)C(=O)N[C@@H](C)C(=O)N[C@@H](Cc1c[nH]c2ccccc12)C(=O)N[C@@H](CC(C)C)C(=O)N[C@H](C(=O)N[C@@H](CCC(=O)O)C(=O)N[C@@H](CCCCN)C(=O)NC(C)(C)C(=O)N[C@@H](C)C(=O)N[C@@H](CCC(=O)O)C(=O)N[C@@H](Cc1ccccc1)C(=O)N[C@@H](CC(C)C)C(N)=O)C(C)C
B6: [Aib8,Glu23,Lys24,Val25,Glu30,His31,Glu34,Lys35,Aib36,Lys37]-GLP-1-(7-37)-peptidyl-Glu-Phe-Leu amide (peptide)
peptide: H[Aib]EGTFTSDVSSYLEGEKVKEFIEHLVEK[Aib]KEFL-NH2
modifications: N-terminus assumed
SMILES: CC[C@H](C)[C@H](NC(=O)[C@H](Cc1ccccc1)NC(=O)[C@H](CCC(=O)O)NC(=O)[C@H](CCCCN)NC(=O)[C@@H](NC(=O)[C@H](CCCCN)NC(=O)[C@H](CCC(=O)O)NC(=O)CNC(=O)[C@H](CCC(=O)O)NC(=O)[C@H](CC(C)C)NC(=O)[C@H](Cc1ccc(O)cc1)NC(=O)[C@H](CO)NC(=O)[C@H](CO)NC(=O)[C@@H](NC(=O)[C@H](CC(=O)O)NC(=O)[C@H](CO)NC(=O)[C@@H](NC(=O)[C@H](Cc1ccccc1)NC(=O)[C@@H](NC(=O)CNC(=O)[C@H](CCC(=O)O)NC(=O)C(C)(C)NC(=O)[C@@H](N)Cc1c[nH]cn1)[C@@H](C)O)[C@@H](C)O)C(C)C)C(C)C)C(=O)N[C@@H](CCC(=O)O)C(=O)N[C@@H](Cc1c[nH]cn1)C(=O)N[C@@H](CC(C)C)C(=O)N[C@H](C(=O)N[C@@H](CCC(=O)O)C(=O)N[C@@H](CCCCN)C(=O)NC(C)(C)C(=O)N[C@@H](CCCCN)C(=O)N[C@@H](CCC(=O)O)C(=O)N[C@@H](Cc1ccccc1)C(=O)N[C@@H](CC(C)C)C(N)=O)C(C)C
B7: [Aib8,Glu23,Lys24,Val25,Glu34,Aib36,Lys37]-GLP-1-(7-37)-peptidyl-Glu-Phe-Leu amide (peptide)
peptide: H[Aib]EGTFTSDVSSYLEGEKVKEFIAWLVEG[Aib]KEFL-NH2
modifications: N-terminus assumed
SMILES: CC[C@H](C)[C@H](NC(=O)[C@H](Cc1ccccc1)NC(=O)[C@H](CCC(=O)O)NC(=O)[C@H](CCCCN)NC(=O)[C@@H](NC(=O)[C@H](CCCCN)NC(=O)[C@H](CCC(=O)O)NC(=O)CNC(=O)[C@H](CCC(=O)O)NC(=O)[C@H](CC(C)C)NC(=O)[C@H](Cc1ccc(O)cc1)NC(=O)[C@H](CO)NC(=O)[C@H](CO)NC(=O)[C@@H](NC(=O)[C@H](CC(=O)O)NC(=O)[C@H](CO)NC(=O)[C@@H](NC(=O)[C@H](Cc1ccccc1)NC(=O)[C@@H](NC(=O)CNC(=O)[C@H](CCC(=O)O)NC(=O)C(C)(C)NC(=O)[C@@H](N)Cc1c[nH]cn1)[C@@H](C)O)[C@@H](C)O)C(C)C)C(C)C)C(=O)N[C@@H](C)C(=O)N[C@@H](Cc1c[nH]c2ccccc12)C(=O)N[C@@H](CC(C)C)C(=O)N[C@H](C(=O)N[C@@H](CCC(=O)O)C(=O)NCC(=O)NC(C)(C)C(=O)N[C@@H](CCCCN)C(=O)N[C@@H](CCC(=O)O)C(=O)N[C@@H](Cc1ccccc1)C(=O)N[C@@H](CC(C)C)C(N)=O)C(C)C

Target: human GLP-1 receptor (human, UniProt P43220)
Experiment: cell-based or functional assay

Binder	CRE luciferase EC50, 0% HSA	CRE luciferase EC50, 1% HSA
B1	0.108 nM	0.062 nM
B2	0.089 nM	0.116 nM
HAQGTFTSDYSKYLDSKAAREFVQWLLEKVKEFL-NH2 [[Ala2,Lys17,Ala18,Arg20,Glu21,Leu27,Glu28,Lys29]-Glucagonyl-(1-29)-Val-Lys-Glu-Phe-Leu amide]	0.971 nM	0.231 nM
B3	0.126 nM	0.037 nM
B4	0.235 nM	0.109 nM
HGEGTFTSDVSSYLEGEAVKEFIAWLVEKVKEFL-NH2 [[Gly8,Glu23,Val25,Glu34,Lys35,Val36,Lys37]-GLP-1-(7-37)-peptidyl-Glu-Phe-Leu amide]	6.08 nM	1.38 nM
B5	0.191 nM	0.069 nM
B6	1.84 nM	0.593 nM
B7	0.461 nM	0.111 nM
HAEGTFTSDVSSYLEGEAVKEFIAWLVEKVKEFL-NH2 [[Glu23,Val25,Glu34,Lys35,Val36,Lys37]-GLP-1-(7-37)-peptidyl-Glu-Phe-Leu amide]	0.44 nM	0.171 nM
HAEGTFTSDLSKQMEEEAVREFIEWLKNKVLEFL-NH2 [[Ala2,Glu21,Lys29,Val30,Leu31,Glu32,Phe33,Leu34]-Exendin-4-(1-34)-peptide amide]	0.031 nM	0.02 nM
